Source: patent publication US20220259593A1, “CONTROL OF MAMMALIAN GENE DOSAGE USING CRISPR” (The Regents of the University of California, priority 2019, published 2022)

Test system: K562 CRISPRi cells
Experiment: Constant region variant library pooled growth screen, K562
Type: cell-based, human
How it was run: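 Relative activity expresses each targeting sequence:constant region pair's phenotype over that of the unmodified constant region. Pooled growth screen ran in K562 CRISPRi cells in duplicate spinner-flask replicates, with puromycin selection and 4–8 days' growth at >2000× coverage; library paired variants with 36 targeting sequences.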

[1] = sgRNA constant region variant, activity relative to unmodified constant region cr995, mean CRISPRi activity
[2] = sgRNA constant region variants, activity relative to the original, un-modified constant region cr995

B1: cr507 (nucleic acid)
guide: GTTTAAGAGCTAAGCTGGAAACAGCATAGCAAGTTTAAATAATGCTAGTCAGTTATCAACTTGAAAAAGTGGCACAGAGTCTGTGCT
modifications: listed as DNA, chemistry not fully specified
- Mean relative activity [1]: 0.01954

B2: cr987 (nucleic acid)
guide: GTTTAAGAGCTAAGCTGGAAACAGCATAGCAAGTTTAAATAAGGCTAGGCCGTTATCAACTTGATAAAGTGGCACCGAGTCGGTGCT
modifications: listed as DNA, chemistry not fully specified
- Mean relative activity [1]: 0.01815

B3: cr157 (nucleic acid)
guide: GTTTAAGAGCTAAGCTGGAAACAGCATAGCAACTTTAAATAAGGCTAGTCCGTTATCAACTTGAAAAAGTGGCATCGAGTCGATGCT
modifications: listed as DNA, chemistry not fully specified
- Mean relative activity [1]: 0.01383

B4: cr042 (nucleic acid)
guide: GTGGAAGAGCTAAGCTGGAAACAGCATAGCAAGTTTAAATAAGGCTAGTCCGTTATCAACTTGAAAAAGTGGCACCGAGTCGGTGCT
modifications: listed as DNA, chemistry not fully specified
- Mean relative activity [1]: 0.0164

B5: cr389 (nucleic acid)
guide: GTTTAAGAGCTAAGCTGGAAACAGCATAGCAAGTTTAAATAAAACTAGTTTGTTATCAACTTGAAAAAGTGGCACCGAGTCGGTGCT
modifications: listed as DNA, chemistry not fully specified
- Mean relative activity [1]: 0.01944

B6: cr731 (nucleic acid)
guide: GTTTAAGAGCTAAGCTGGAAACAGCATAGCAAGGTTAAATAAGGCTAGTCCGTTATCAACTTGAAAAAGTGGTACCGAGTCGGTACT
modifications: listed as DNA, chemistry not fully specified
- Mean relative activity [1]: 0.01505

B7: cr384 (nucleic acid)
guide: GTTTAAGAGCTAAGCTGGAAACAGCATAGCAAGTTTAAATAAATCTAGTATGTTATCAACTTGAAAAAGTGGCACCGAGTCGGTGCT
modifications: listed as DNA, chemistry not fully specified
- Mean relative activity [1]: 0.01438

B8: cr261 (nucleic acid)
guide: GTTTAAGAGCTAAGCTGGAAACAGCATAGCAAGGTTAAATAAGGCTAGTCCGGTATCAACTTGAAAAAGTGGCACCGAGTCGGTGCT
modifications: listed as DNA, chemistry not fully specified
- Mean relative activity [1]: 0.01441

B9: cr214 (nucleic acid)
guide: GTTTAAGAGCTAAGCTGGAAACAGCATAGCAAGTTTAAATAAGGCTAGTCCGTTATCAACTTGAGAAAGTGGCAACGAGTCGTTGCT
modifications: listed as DNA, chemistry not fully specified
- Mean relative activity [2]: 1.033

B10: cr954 (nucleic acid)
guide: GTTTAAGAGCTAAGCTGGAAACAGCATAGCAAGGTTAAATAAGGCTAGTCCGTTATCAAATTGAAAAATTGGCACCGAGTCGGTGCT
modifications: listed as DNA, chemistry not fully specified
- Mean relative activity [1]: 0.01751

B11: cr170 (nucleic acid)
guide: GTTTAAGAGCTAAGCTGGAAACAGCATAGCAAGGTTAAATAAGGCTAGTCCGTTATCAACTTGAAAAAGTGACACCGAGTCGGTGTT
modifications: listed as DNA, chemistry not fully specified
- Mean relative activity [1]: 0.01501

B12: cr031 (nucleic acid)
guide: GTAAAAGAGCTAAGCTGGAAACAGCATAGCAAGTTTAAATAAGGCTAGTCCGTTATCAACTTGAAAAAGTGGCACCGAGTCGGTGCT
modifications: listed as DNA, chemistry not fully specified
- Mean relative activity [1]: 0.01677

B13: cr316 (nucleic acid)
guide: GTTTAAGAGCTAAGCTGGAAACAGCATAGCAAGTTTAAATAATGCTAGTCAGTTATCAACTTGAAAAAGTGGCACCAAGTTGGTGCT
modifications: listed as DNA, chemistry not fully specified
- Mean relative activity [1]: 0.01422

B14: cr834 (nucleic acid)
guide: GTTTAAGAGCTAAGCTGGAAACAGCATAGCAAGGTTAAATAAGGCTAGTCCGTTATCAACTTGAGAAAGTGGCACCGAGTCGGTGCT
modifications: listed as DNA, chemistry not fully specified
- Mean relative activity [1]: 0.01861

B15: cr864 (nucleic acid)
guide: GTTTAAGAGCTAAGCTGGAAACAGCATAACAAGTTTAAATTAGGCTAGTCCGTTATCAACTTGAAAAAGTGGCACCGAGTCGGTGCT
modifications: listed as DNA, chemistry not fully specified
- Mean relative activity [1]: 0.01678

B16: cr324 (nucleic acid)
guide: GTTTAAGAGCTAAGCTGGAAACAGCATAGCAAGTTTAAATAACGCTAGTCGGTTATCAACCTGAAAAGGTGGCACCGAGTCGGTGCT
modifications: listed as DNA, chemistry not fully specified
- Mean relative activity [1]: 0.01711

B17: cr964 (nucleic acid)
guide: GTTTAAGAGCTAAGCTGGAAACAGCATAGCTAGTTTAAATAAGGCTAGTCCGTTATCAACTTGAGAAAGTGGCACCGAGTCGGTGCT
modifications: listed as DNA, chemistry not fully specified
- Mean relative activity [2]: 1.033

B18: cr263 (nucleic acid)
guide: GTTTAAGAGCTAAGCTGGAAACAGCATAGCAAGTTTAAATAAGGCTAGTCCGTTATCAACTTGAACAAGTGGCACCGAGTCGGTGCT
modifications: listed as DNA, chemistry not fully specified
- Mean relative activity [2]: 1.033

B19: cr448 (nucleic acid)
guide: GTTTAAGAGCTAAGCTGGAAACAGCATAGCAACTTTAAATAAGCCTAGTGCGTTATCAACTTGAAAAAGTGGCACCGAGTCGGTGCT
modifications: listed as DNA, chemistry not fully specified
- Mean relative activity [1]: 0.01746

B20: cr519 (nucleic acid)
guide: GTTTAAGAGCTAAGCTGGAAACAGCATAGCAAGGTTAAATAAGGCTAGTCCGTTATCAACTTGAAAAAGTGGCGCCGAGTCGGCGCT
modifications: listed as DNA, chemistry not fully specified
- Mean relative activity [1]: 0.01933

B21: cr841 (nucleic acid)
guide: GTTTAAGAGCTAAGCTGGAAACAGCATAGCAAGGTTAAATAAGGCTAGTCCGTTATCACCTTGAAAAAGGGGCACCGAGTCGGTGCT
modifications: listed as DNA, chemistry not fully specified
- Mean relative activity [1]: 0.01636

B22: cr562 (nucleic acid)
guide: GTTTAAGAGCTAAGCTGGAAACAGCATAGCGACTTTAAATAAGGCTAGTCCGTTATCAACTTGAGAAAGTGGCACCGAGTCGGTGCT
modifications: listed as DNA, chemistry not fully specified
- Mean relative activity [1]: 0.01393

B23: cr336 (nucleic acid)
guide: GTTTAAGAGCTAAGCTGGAAACAGCATAGCAAGTTTAAATAAGGGTACTCCGTTATCAAATTGAAAAATTGGCACCCAGTGGGTGCT
modifications: listed as DNA, chemistry not fully specified
- Mean relative activity [1]: 0.01616

B24: cr382 (nucleic acid)
guide: GTTTAAGAGCTAAGCTGGAAACAGCATAGCAAGGTTAAATAACGCTAGTCGGTTATCAACTTGAAAAAGTGGCACCGAGTCGGTGCT
modifications: listed as DNA, chemistry not fully specified
- Mean relative activity [1]: 0.01715

B25: cr963 (nucleic acid)
guide: GTTTAAGAGCTAAGCTGGAAACAGCATAGCAAGTTTAAATAACGCTAGTCGGTTATCAACTTGAAAAAGTGGCGCTGAGTCAGCGCT
modifications: listed as DNA, chemistry not fully specified
- Mean relative activity [1]: 0.01551

B26: cr462 (nucleic acid)
guide: GTTTAAGAGCTAAGCTGGAAACAGCATAGCAAAATTAAATAAGGCTAGTCCGTTATCAACTTGAAAAAGTGGCACCGAGTCGGTGCT
modifications: listed as DNA, chemistry not fully specified
- Mean relative activity [1]: 0.01488

B27: cr041 (nucleic acid)
guide: GCTTCAGAGCTAAGCTGGAAACAGCATAGCAAGTTTAAATAAGGCTAGTCCGTTATCAACTTGAAAAAGTGGCACCGAGTCGGTGCT
modifications: listed as DNA, chemistry not fully specified
- Mean relative activity [1]: 0.01415

B28: cr541 (nucleic acid)
guide: GTTTAAGAGCTAAGCTGGAAACAGCATAGCAAGTTTAAATAAAGGTACTCTGTTATCAACTTGAAAAAGTGGTACCGAGTCGGTACT
modifications: listed as DNA, chemistry not fully specified
- Mean relative activity [1]: 0.01856

B29: cr504 (nucleic acid)
guide: GTTTAAGAGCTAAGCTGGAAACAGCATAGCAAGGTTAAATAAGGCTAGTCCGTTATCAACTGGAAACAGTGGCACCGAGTCGGTGCT
modifications: listed as DNA, chemistry not fully specified
- Mean relative activity [1]: 0.01685

B30: cr413 (nucleic acid)
guide: GTTTAAGAGCTAAGCTGGAAACAGCATAGCAACTTTAAATAAGGCTAGTCCGTTATCAACTTGAAAAAGTGGCAACGAGTCGTTGCT
modifications: listed as DNA, chemistry not fully specified
- Mean relative activity [1]: 0.01427
